T1: cell surface LAMP1 on Patient-derived tumor xenografts and tumor cell lines (Homo sapiens, UniProt P11279)
T1 construct: endogenous in cells; host or cells: enzymatically dissociated patient-derived xenograft tumour cells (e.g. CR-IGR-034P, LUN-NIC-014P, BRE-IGR-0159) and tumour cell lines
T1 sequence (P11279 29-417): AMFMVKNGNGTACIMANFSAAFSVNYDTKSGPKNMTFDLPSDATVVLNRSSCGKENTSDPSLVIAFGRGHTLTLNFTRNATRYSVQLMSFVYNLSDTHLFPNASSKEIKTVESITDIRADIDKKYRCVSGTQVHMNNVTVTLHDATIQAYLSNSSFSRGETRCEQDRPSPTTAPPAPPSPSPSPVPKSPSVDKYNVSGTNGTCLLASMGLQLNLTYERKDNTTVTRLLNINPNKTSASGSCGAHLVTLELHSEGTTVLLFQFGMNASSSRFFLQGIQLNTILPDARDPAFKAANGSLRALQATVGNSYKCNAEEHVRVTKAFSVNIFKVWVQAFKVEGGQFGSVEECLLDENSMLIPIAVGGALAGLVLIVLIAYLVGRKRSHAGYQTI

T2: human LAMP1 expressed at the cell surface of recombinant HCT116 (HCT116 huLAMP1 clone 8) (Homo sapiens, UniProt P11279)
T2 construct: full length human and cynomolgus monkey LAMP1 expressed at the cell surface of a recombinant cell line, wherein the cell line may be HCT116; expressed in transfected cells
T2 sequence (P11279 29-417): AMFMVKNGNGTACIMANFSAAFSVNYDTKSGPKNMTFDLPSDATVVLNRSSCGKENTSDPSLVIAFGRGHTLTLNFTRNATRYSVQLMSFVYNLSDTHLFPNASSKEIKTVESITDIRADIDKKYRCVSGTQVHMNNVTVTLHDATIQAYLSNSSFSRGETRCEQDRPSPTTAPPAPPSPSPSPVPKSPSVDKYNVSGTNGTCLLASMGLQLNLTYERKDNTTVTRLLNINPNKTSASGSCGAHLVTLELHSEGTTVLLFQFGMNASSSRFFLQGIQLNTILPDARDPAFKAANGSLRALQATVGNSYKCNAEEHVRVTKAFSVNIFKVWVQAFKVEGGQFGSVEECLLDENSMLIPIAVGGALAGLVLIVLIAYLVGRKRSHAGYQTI

T3: mLAMP1_ΔGYQTI (Mus musculus, UniProt P11438)
T3 construct: expressed in transfected cells; host or cells: 293-F (HEK293-derived), transient transfection, plasmid pXL6009
T3 sequence (P11438 with tags, fused parts or gaps limits assumed): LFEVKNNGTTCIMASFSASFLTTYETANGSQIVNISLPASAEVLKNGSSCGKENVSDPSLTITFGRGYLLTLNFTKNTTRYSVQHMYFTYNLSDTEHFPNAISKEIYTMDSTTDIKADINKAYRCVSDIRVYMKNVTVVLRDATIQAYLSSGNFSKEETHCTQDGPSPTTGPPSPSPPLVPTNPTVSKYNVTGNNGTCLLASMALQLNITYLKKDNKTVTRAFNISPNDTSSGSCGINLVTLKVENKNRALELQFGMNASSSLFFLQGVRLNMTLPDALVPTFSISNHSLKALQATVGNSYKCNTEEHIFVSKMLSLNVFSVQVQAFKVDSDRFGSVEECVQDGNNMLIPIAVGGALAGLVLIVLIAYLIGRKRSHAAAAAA


Assays:
[1] = biological target: T1, cell surface LAMP1 on Patient-derived tumor xenografts and tumor cell lines; test: Antibody binding capacity (ABC) by FACS on patient-derived xenografts and tumor cell lines
Method: Antibody binding capacity of antibody was determined using Mouse IgG Calibrator kit (Biocytex #7208) or Human IgG Calibrator Kit (Biocytex #CP010) according to the manufacturer's instructions.
The panel of tumor cells comprises Patient-derived tumor xenografts from different origins and tumor cell lines. FIG. 2 illustrates the expression profile and Table 4 summarizes the antibody binding capacity results.
The panel of tumor cells comprises Patient-derived tumor xenografts from different origins and tumor cell lines.

[2] = biological target: T2, human LAMP1 expressed at the cell surface of recombinant HCT116 (HCT116 huLAMP1 clone 8); test: FACS on recombinant HCT116 stable clones expressing human LAMP1; type: binding
Method: HCT116 cells were infected by a lentiviral vector allowing stable integration of the human or the cynomolgus LAMP1 CDS in genomic DNA of cells. Individual clones with different densities of human or cynomolgus LAMP1 cell surface localization were derived from a pool of HCT116 infected cells. […] 100 μL/well of goat anti-human IgG conjugated with Alexa488 (Invitrogen; #A11013) was added for 1 h at 4° C. and washed two times with PBS 1% BSA. The antibody binding was evaluated after centrifugation and resuspension of cells in 100 μl fixing solution (paraformaldehyde at 4% in PBS). Samples were read using Galaxy® Flow Cytometry System (Partec). EC50 values were estimated using BIOST@T-SPEED software.
100 μL/well of goat anti-mouse IgG conjugated with Alexa647 (Invitrogen; #A2135) was added for 45 min at 4° C. and washed three times with PBS 1% BSA. The antibody binding was evaluated after centrifugation and re-suspension of cells by adding 200 μl/well PBS 1% BSA and read using Guava® easyCyte™ 8HT Flow Cytometry System. EC50 values were estimated using BIOST@T-SPEED software.
HCT116 stable clone was obtained as described above. […]
DM4-SPDB-huMAb1_1 was assessed by flow cytometry for its ability to bind to human LAMP1 or cynomolgus LAMP1 proteins expressed respectively at the surface of HCT116 or HEK293 stable clones, both obtained as described in the protocol of example 4.7. […]

mLAMP1_ΔGYQTI = biological target: T3, mLAMP1_ΔGYQTI; test: Binding onto membrane-anchored murine LAMP1 (293-F cells) by flow cytometry; settings: pXL6009 mLAMP1_ΔGYQTI
Description: Different LAMP1 proteins were expressed at the cell membrane of HEK293 cells after transient expression from mammalian plasmids encoding the entire coding sequence of LAMP1 deleted of the intracellular lysosome-targeting motif GYQTI and substituted by a 5-Ala repeat sequence. Mammalian plasmids had similar expression signals as plasmids used to produce recombinant LAMP1 described in example 6.2. Table 14 below lists all the plasmids that were designed in order to confirm the results obtained with soluble LAMP1 protein by ELISA in example 6.3 and further characterize the binding domains of the anti-LAMP1 mAbs.
Each expression plasmid described in example 6.4 was complexed with 293Fectin™ in suspension-cultivated 293-F cells as using the protocol outlined in example 6.2. Two days post transfection cells were processed, analyzed by flow cytometry (Guava® easyCyte™ 8HT) as mentioned in example 4.7, and the mean fluorescence was recorded. This fluorescence represents a semi-quantitative assessment of binding.

Antibody Binding Capacity (ABC) ([1]; CR-IGR-034P/colorectal PDX) | Antibody Binding Capacity (ABC) ([1]; CR-LRB-003P/colorectal PDX) | Antibody Binding Capacity (ABC) ([1]; CR-LRB-010P/colorectal PDX) | Antibody Binding Capacity (ABC) ([1]; Colo205/colon cell line) | Antibody Binding Capacity (ABC) ([1]; LS174T/colon cell line) | Antibody Binding Capacity (ABC) ([1]; LUN-NIC-014/lung PDX) | Antibody Binding Capacity (ABC) ([1]; LUN-NIC-025/lung PDX) | Antibody Binding Capacity (ABC) ([1]; OVA-IGR-0022/ovary PDX) | Antibody Binding Capacity (ABC) ([1]; STO-IND-006/stomach PDX) | Antibody Binding Capacity (ABC) ([1]; SW480/colon cell line) | EC50 [2] [nM] | Binding call (mLAMP1_ΔGYQTI; Table 17 Experiment no1) | Mean fluorescence (mLAMP1_ΔGYQTI; Table 17 Experiment no1) | Binding call (mLAMP1_ΔGYQTI; Table 18) | Mean fluorescence (mLAMP1_ΔGYQTI; Table 18) | Binding call (mLAMP1_ΔGYQTI; Table 17 Experiment no2) | Mean fluorescence (mLAMP1_ΔGYQTI; Table 17 Experiment no2) | Molecule
180,000 | 22 000 | 95,000 | 4,000 | 3,600 | 102,000 | 27,000 | 60,000 | 64,000 | 1,700 | 6.3 | No binding | 21 | No binding | 27 |  |  | MAb2: murine monoclonal anti-LAMP1 antibody, VH SEQ ID NO: 8, VL SEQ ID NO: 12 (antibody, V domains shown, antibod fragment; antibody fragment) VH: QVQLQQSAAELARPGASVKMSCKASGYTFTSYTMHWVKQRPGQGLEWIGYFNPSSGYPEYNQKFKDKTTLTADKSSNTAFIQLNSLTSEDSAVYYCSRGYYYGSRGYALDFWGQGASVTVSS VL: NIVLTQSPVSLAVSLGQRATISCRASESVDINGNTFMHWYQQKPGQSPKLVIYAASNIESGVPARFSGSGSSTDFTFTIDPVEADDVATYYCQQNIEDPWTFGGGTKVEIK
230,000 | 25 000 | 140,000 | 6,000 | 6,000 | 104,000 | 33,000 | 67,000 | 90,000 | 2,500 | 4.9 | No binding | 4 |  | 13 | No binding | 2 | MAb1: murine monoclonal anti-LAMP1 antibody, VH SEQ ID NO: 1, VL SEQ ID NO: 5 (antibody, V domains shown, Antibody Fragment; antibody fragment) VH: QVQLQQSGAELVKPGASVKMSCKASGYIFTNYNIHWVKKSPGQGLEWIGAIYPGNGDAPYSQKFKDKATLTADKSSSTTYMQLSRLTSEDSAVYYCVRANWDVAFAYWGQGTLVSVSA VL: DIQMTQSPPSLSASLGGKVTITCKASQDIDRYMAWYQDKPGKGPRLLIHDTSTLQPGIPSRFSGSGSGRDYSFSISNLEPEDIATYYCLQYDNLWTFGGGTKLEIK

— US9809653B2, “Anti-LAMP1 antibodies and antibody drug conjugates, and uses thereof” (SANOFI, priority 2012, dated 2017)
